This data set is described as follows: yeast display, Sf9 membrane polyspecificity reagent, FACS + sequencing; frameworks hold sequencing errors. Put shortly:
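Nanobodies from a synthetic yeast display library (Saccharomyces cerevisiae BJ5465), induced 36–48 hours with galactose, were stained 1 hour at 4 °C with 10% biotinylated, detergent-solubilized Sf9 membrane reagent, enriched on streptavidin microbeads, then FACS-sorted. Anti-HA (expression) and streptavidin (reagent binding) fluorescence set low and high (top ~1%) gates. Polyreactivity labels come from the gate of origin. Genes were colony-PCR amplified, MiSeq 2 × 250 sequenced and filtered by CDR length.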
Regarding “QVQLVESGGGLVQAGGSLRLSCAASGRTFIYNVMGWYRQAPGKERELVASIRSSGGSTYYADSVKGRFTISRDNAKNSVYLQMNSLKPEDTAVYYCAADRSPGIRCWPGDYWGQGTQVTVSS”, the “polyreactivity (PSR sort gate)” value is listed as “low polyreactivity”.
The same measure for “QVQLVESGGGLVQAGGSLRLSCAASGRTFIYYAMGWYRQAPGKEREFVAIISWNGTSTNYADSVKGRFTISRDNAKNTVYLQMNSLKPEDTAVYYCAASFWTDYYRYDYWGQGTQVTVSS”: “low polyreactivity”; for “QVQLVESGGGLVQAGGSLRLSCAASGRTFIYYAMGWYRQAPGKERELVAAITNRGGRTYYADSVKWRFTISRDNAKYTVYLQMNSLKPEDTAVYYCNRVGTYHSYDYWGQGTQVTVSS”: “high polyreactivity”.
To “QVQLVESGGGLVQAGGSLRLSCAASGRTFIYYTMGWYREAPGKERELVASISFSGGRTYYADSVKGRFTISRDNAKNTVYLQMNSLKAEDTAVYYCNRVLYYQVDYWGQGTEVTVSS” belongs “high polyreactivity”.
Turning to “QVQLVESGGGLVQAGGSLRLSCAASGRTFKDYVMGWYRQAPGKERELVAAITWRGGRTYYADSVKGRFTISRDNAKNTVYLQMNSLKPEDTAVYYCAAAEYFVSGGIMDYWGQGTQVTVSS”, the “polyreactivity (PSR sort gate)” value is “high polyreactivity”.
To “QVQLVESGGGLVQAGGSLRLSCAASGRTFKGYTMGWYRQAPGKERELVAAITRSGGGTYYADSVKGRFTISRDNAKNTVYLQMNSLKPEDTAVYYCAAYNGSRRQEFDYWGQGTQVTVSS” belongs “high polyreactivity”; to “QVQLVESGGGLVQAGGSLRLSCAASGRTFKLYAMGWYRQAPGKERELVATIRRSGTRTYADSVKGRFTISRDNAKNTVYLQMNSLKPEDTAVYYCAATTYGYVYHRYDYWGQGTQVTVSS”, “high polyreactivity”; to “QVQLVESGGGLVQAGGSLRLSCAASGRTFKPYAMGWYRQAPGKERELVAAISTRGGSTYADSVKGRFTISRDNAKNTVYLQMNSLKPEDTAVYSCAAVYYRASARKFGYWGQGTQVTVSS”, “low polyreactivity”.
For “QVQLVESGGGLVQAGGSLRLSCAASGRTFKPYGMGWYRQAPGKERELVAAISSRGDITYYADSVKGRFTISRDNAKNTVYLQMNSLKPEDTAVYYCNADLYRKRAWVRRDGSWGQGTQVTVSS”, the “polyreactivity (PSR sort gate)” value is listed as “low polyreactivity”.
For “QVQLVESGGGLVQAGGSLRLSCAASGRTFKRFAMGWYRQAPGKERELVAAITWSGGNTYYADSVKGRFTISRDNAKNTVYLQMNSLKPEDTAVYYCAAKGAGRRYDSWGQGTQVTVSS”, the “polyreactivity (PSR sort gate)” value is listed as “high polyreactivity”.
To “QVQLVESGGGLVQAGGSLRLSCAASGRTFKSYAMGWYRQAPGKERELVATITRDGRTNYADSVKGRFTISRDNAKNTVYLQMNSLKPEDTAVYYCNADSRYRYDYWGLGTQVTVSS” belongs “low polyreactivity”.
Take “QVQLVESGGGLVQAGGSLRLSCAASGRTFKWNAMGWYRQAPGKERELVAAISSRDGSTYYADSVKGRFTISRDNAKNTVYLQMNSLKPEDTAVYYCNAYFTGARQRTLGYDYWGQGTQVTVSS”: the “polyreactivity (PSR sort gate)” value is listed as “low polyreactivity”.
The same measure for “QVQLVESGGGLVQAGGSLRLSCAASGRTFKWNPMGWYRQAPGKERELVAAITRSDGRTFYADSVKGRFTISRDNAKNTVYLQMNSLKPEDSAVYYCNALGYRNSVIYSGFDYWGQGTQVTVSS”: “low polyreactivity”; for “QVQLVESGGGLVQAGGSLRLSCAASGRTFKYYAMGWARQAPGKERELVATISYNGASTYYADSVKGRFTSSRDNAKNSVYLQMNSQKPEDTAVYYCAAAYLWRGRLGYWGQGTQVTVSS”: “high polyreactivity”.
Take “QVQLVESGGGLVQAGGSLRLSCAASGRTFKYYAMGWYRQAPGKERELVAAISLSSGRTYYADSVKGRFTISRDNAKNTVYLQMNSLKPEDTAVYYCAAERYASGLVYGYDYWGQGTQVTVSS”: the “polyreactivity (PSR sort gate)” value is “high polyreactivity”.
The same measure for “QVQLVESGGGLVQAGGSLRLSCAASGRTFKYYAMGWYRQAPGKERELVAAISRGGSTNYADSVKGRFTISRDNAKNTVYLQVNSLKPEDTAVYYCARRYIVQSGDDYWGQGTQVTVSS”: “low polyreactivity”.

The values above are taken from the nanobody polyreactivity screen of Harvey et al. (2022).
